According to PMC9729729, “Development of anti-membrane type 1-matrix metalloproteinase nanobodies as immunoPET probes for triple negative breast cancer imaging” (Frontiers in Medicine, 2022):

B1: 3TPA14 displayed on phage (monoclonal phage clone) (VHH)
VHH: QVQLQESGGGLVQAGGSLRLSCAASGLILSGFSTGWFRQAPGKEREFLSTISSAGTRTYYADSVKGRFTISRDNAKNTVYLQMNRLKPEDAGVYYCTGYGRRSMPALRPEEWTYWGQGTQVTVSS
notes: also called 3TPA14 phage clone; source: E. coli TG1 with phagemid, VCS-M13 helper phage, culture supernatant
B2: 3CMP75 displayed on phage (monoclonal phage clone) (VHH)
VHH: QVQLQESGGGLVQAGGSLRLSCTASGRTFSSNAMAWFRLAPGKEREFVAAISGNGGSTTYADSVKGRVTISRDNAKNTVYLHMSSLKPEDTAVYYCNQRNFGRDGTLGDYWGNGTQVTVSS
notes: also called 3CMP75 phage clone; source: E. coli TG1 with phagemid, VCS-M13 helper phage, culture supernatant
B3: nanobody 3TPA14 (CDR3 group 1), purified (VHH)
VHH: QVQLQESGGGLVQAGGSLRLSCAASGLILSGFSTGWFRQAPGKEREFLSTISSAGTRTYYADSVKGRFTISRDNAKNTVYLQMNRLKPEDAGVYYCTGYGRRSMPALRPEEWTYWGQGTQVTVSS
notes: Llama-derived VHH selected by phage display against CAT-MT1-MMP; also called Nb 3TPA14; source: E. coli WK6 periplasm (pMECS), purified (IMAC HisTrap, SEC Superdex 75)
B4: nanobody 3CMP75 (CDR3 group 6), purified (VHH)
VHH: QVQLQESGGGLVQAGGSLRLSCTASGRTFSSNAMAWFRLAPGKEREFVAAISGNGGSTTYADSVKGRVTISRDNAKNTVYLHMSSLKPEDTAVYYCNQRNFGRDGTLGDYWGNGTQVTVSS
notes: Llama-derived VHH selected by phage display against CAT-MT1-MMP; also called Nb 3CMP75; 2CMP75 (as printed in two methods paragraphs); source: E. coli WK6 periplasm (pMECS), purified (IMAC HisTrap, SEC Superdex 75)
B5: [^68Ga]Ga-NOTA-3TPA14 (VHH)
VHH: QVQLQESGGGLVQAGGSLRLSCAASGLILSGFSTGWFRQAPGKEREFLSTISSAGTRTYYADSVKGRFTISRDNAKNTVYLQMNRLKPEDAGVYYCTGYGRRSMPALRPEEWTYWGQGTQVTVSS
notes: also called radiolabeled-NOTA conjugate of 3TPA14; source: E. coli WK6 periplasm, purified, conjugated with p-SCN-Bn-NOTA and labelled with 68Ga, PD-10 purified
B6: [^68Ga]Ga-NOTA-3CMP75 (VHH)
VHH: QVQLQESGGGLVQAGGSLRLSCTASGRTFSSNAMAWFRLAPGKEREFVAAISGNGGSTTYADSVKGRVTISRDNAKNTVYLHMSSLKPEDTAVYYCNQRNFGRDGTLGDYWGNGTQVTVSS
notes: also called radiolabeled-NOTA conjugate of 3CMP75; source: E. coli WK6 periplasm, purified, conjugated with p-SCN-Bn-NOTA and labelled with 68Ga, PD-10 purified

Assays:
[1] = biological target: T1, catalytic domain of human MT1-MMP (residues 119-290) (Homo sapiens, UniProt P50281); assay: ELISA; monoclonal phage ELISA; MaxiSorp plates coated with CAT-MT1-MMP, MT2-MMP or MT3-MMP at 4°C overnight (BSA as negative control); culture supernatants with phages applied; anti-M13-HRP, OPD, OD490; conditions: one partner purified
T1 construct: membrane type 1-matrix metalloproteinase (MT1-MMP), human, catalytic domain, residues 119-290, expressed from pET3a; also called CAT-MT1-MMP; catalytic domain of membrane type 1-matrix metalloproteinase

[2] = biological target: T1, catalytic domain of human MT1-MMP …; assay: ELISA; MaxiSorp plates coated overnight at 4°C with CAT-MT1-MMP; blocked with 3% BSA in PBS; serial dilutions of nanobodies, 90 min at 37°C; HRP anti-HA mAb, TMB, OD450; conditions: both partners purified
[3] = biological target: extracellular domain (ed) of MT1-MMP, Ala21-Ser538, Arg108Pro (Homo sapiens (species ; …, UniProt P50281, Arg108Pro); assay: SPR; edMT1-MMP amine-coupled on a CM5 chip (104 RU); nanobody 16-250 nM, 3 min at 30 μl/min, 30 min dissociation; HBS-EP+ buffer; 25°C; Biacore X100; 1:1 binding model; conditions: both partners purified

Binder | binding result [1] | binding result [2] | Kd [3] [nM]
B1 | binds | – | –
B2 | binds | – | –
B3 | – | binds | 15.8 ± 0.3
B4 | – | binds | 35 ± 3
B5 | – | binds | –
B6 | – | binds | –
